Assay results reported in the nanobody polyreactivity screen of Harvey et al. (2022).

Assay: yeast display, Sf9 membrane polyspecificity reagent, FACS + sequencing; frameworks hold sequencing errors
Summary of the method: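 Synthetic nanobody libraries on Saccharomyces cerevisiae BJ5465 were galactose-induced for 36–48 hours, stained 1 hour at 4 °C with 10% biotinylated, detergent-solubilized Sf9 membrane reagent and enriched on streptavidin microbeads. FACS then separated cells into low and high (top ~1%) gates by anti-HA (expression) and streptavidin (reagent binding) fluorescence. Genes were colony-PCR amplified, MiSeq 2 × 250 sequenced and CDR-length filtered. A clone's polyreactivity label is that of its gate of origin.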

Row | Sequence | polyreactivity (PSR sort gate)
1 | QVQLEESGGGLVQAGGSLRLSWAASGSTFVPNAMGWYRQAPGKERELVAAISYSGGTTYYADSVKGRFTISRDNAKNTVYLQMNSLKPEDTAVYYCAARSKGAAAILDDYWGQGTQVTVSS | low polyreactivity
2 | QVQLEESGGGLVQAGGSLRLTCAASGRILGYSAMGWYRQAPGKERELVAAISSGDSTNSADSVKGRFTISRDNAKITVYLQMNSLKPEDTAVYYCAAKGCIWNPYNYWGQGTQVTVSS | low polyreactivity
3 | QVQLEESGGGLVQAGGSLRLTCAASGRTFYNNAMGWYRQAPGKERQLVATISKSGGSTNYADSVKGRFTISRDNAKNTVYLQMNSLKPEDNAVYYCAADTSGGSWGRGRWKYGYWGQGTQVTVSS | high polyreactivity
4 | QVQLEESGGGLVQAGGSLRLTCAPSGTTFSRYVMGWYRQAPGKERELVAAINRSSGSTYYADSVKGRFTISRDNAKNTVYLQMNSLKPEDTAVYYCAALYRKRGSVQYDYWGQGTQVTVSS | high polyreactivity
5 | QVQLEESGGGLVQAGGSLRVSCSASGSTYLDYHMGWYRQAPGQQRELVAAITDSGGRTYYADSVKARFTISRDNAKNTVYFQMKSLKPEDTAVYYCARDRGKITPYDYWGQGTQVTVSS | low polyreactivity
6 | QVQLEESGGGLVQAGGSLSLSCAASGRNMPYNVMAWYIQATGKEREFVAAITGSGGDTYYADSVKGRFTISRDNAKNTVYLQMNSLKPEDTAVYYCAAAPYIGCSFGQTPGSGYWGQGTQVTVSS | low polyreactivity
7 | QVQLEESGGGLVQAGGSLSLSCAASGSILIYNAMGWYRQAPGKERELVAGISRRGASTYYADSVKGRFTISRDNEKKTVYLQMNRLKPEDTAVYYCAALGKYIVAWSGDYWGQGTQVTVSS | low polyreactivity
8 | QVQLEESGGGLVQAGGSRRLSCAASGSIFIANAMGWYRQAAGKEREFVAGISASGSSTYYADSVKVRFTISRDNAKNTVYLQMNILKPEDTAVNYCAAGSYYWGQGTQVTVSS | high polyreactivity
9 | QVQLEESGGGLVQAGGTLRLSCAASGRIFSGYAMGWYRQAPGKERELGAAISSSGGSTYYADSVQGRFTISRDNAKNTVYLQMNSLKPEDTAVYYCAASRSRYSVNWYNYWGQGTQVSVSS | high polyreactivity
10 | QVQLEESGGGLVQAGRSLRFSCAASGRIFPWYTMGWYRPAPGKERELVAVISSGGRTHYADSVKGRFTISRDNAKNTVYLQMNSLKPEDTAVYYCAGESRYQRYDYWRQGTQVTVSS | high polyreactivity
11 | QVQLEESGGGLVQAGVSLRLSCAASGRIFLSNAMGWYRQAPGKEREFVAAISWRGGSTYYADSVKGRFTISRDNAKNTVYLQMNSLKPEDTAVYYCAVDVRYYYGRSYDYWGQGTQVTVSS | high polyreactivity
12 | QVQLEESGGGLVQARGSLRLSCAASGSTFNSYAMGWYRQAPGKERELVAAISSTGGNTYYADSVKGRFTISLDNAKNTVYLQMNSLKPEDTAVYYCNARRYGKVVRSSYNYWGQGTQVTVSS | high polyreactivity
13 | QVQLEESGGRLVQAGGSIRLTCAASGSIFASNTKGWYRQAPGKERELVAGITKIGSSTYYADSVKGRFTISRDNAKNTVYLQMNSLKPEDTAVYYCNAYGPNIYSSRYDYWGQCTQVTVSS | low polyreactivity
14 | QVQLEESGGRLVQAGGSLRLRCAASGLMYTRYVMGWYRQAPGKERELVAVISSGGSTYYADSVKGRFTISRDNAKNTVYLQMNSLIAEDTAVYYCAAYLRSSHVTYDYWGQGTQVTVSS | high polyreactivity
15 | QVQLEESGGRLVQAGGSLRLSCAASGSTFSNNAMGWYRQAPGKERELVAAIRTSGGRTYYADSVKGRFTISRDNAKHTVYLQMNSLKPEDTAVYYCAKRWVYRYGYEYWGQGTQVTVSS | high polyreactivity
16 | QVQLEESGLGLVQAGGSLRLSCAASGFTFYGNAMGSYRKAPGKEREFVAAISSSGASTRYADSVKGRFTISRDNAKNTVYLQMYSLKPEDTAVYYCAADAPAWILEAYGYWGQGTQVTVSS | low polyreactivity
17 | QVQLEESGRGLDQAGVSLRLSCAASVSTFAGYAMGWYRQAPVKERELVATITYSGGSTYYADSVKGRFTISRDNAKNTVYLQMNSLKPEDTAVYYCAKKASDWWGYEYWGQGTQVTVSS | low polyreactivity
18 | QVQLEESGRGLVQAGGSLRLSCAASGFTFNWYAMGWSSQATGKERELVATINSGGSTYYADSVKGRFTISRDNAKNTVYLQMNSLKPEDTAVYYCNRTHRRRYVKSAYNYWGQGTQVTVSS | low polyreactivity
19 | QVQLEESGVGLVQAGGSLRLSSAASGNIFVRYSMGWYRQARGKERELVAAISWSGGRTYYADSVKGRFTISRDKAKNSVYFQMNSLKPEDTAVYYCAAGVPKIGQAGYDYWGQGTQVTVSA | high polyreactivity
20 | QVQLEESRGGLVQAGGSLRLSCAASGLNFRSNAMGWYRQAPGKERELVAAISSSGGSTYYADSVKGRFTISRENAKNTVYLQMNSLKPEDTAVYYCAAEDPADQYDYWGQGTQVTVSS | high polyreactivity
21 | QVQLEESRGGLVQAGGSLRLSCAASGLTSRQYAMGWYSQAPGKERELVAAITLRDGSTYYADSVKGRFTISRDNAKNTDYLQMNSLKPEDTAVYYCARRYLGLYSHFDYWGQGTQVTVSS | high polyreactivity
22 | QVQLEESRGGLVQAGGSLRLSCAASGNIFGSNAMGWYRQAPGKERGLVAAISGSNGGTYYADSVKGRFTISRDYAKNTVYLQMNSLTPEDTAVYFCAAVWYLEDHHDYYYWGQGTQVTVSS | low polyreactivity

Row | Sequence | polyreactivity (PSR sort gate)
23 | QVQLEESVGGLVQAGGSLRLSCAASGRIFRGYAMGWYRQAPGKETELVATISAIGGSTYADSVKGRFTISRDNAKNTVYLQKNSLKPEDTAVYYCNVRKVYRYQFRFEYWGQGTQVTVSS | high polyreactivity
24 | QVQLEESVGGLVQAGGSLRLSCAASGSILLWNAMGSYREAPGKERELVAAISSSGTSTYYADSVKGLFTISRDNAKNTVYLQMNSEKPEDNAVYYCAADQSEFYAIYYYWGQGTQVTVSS | low polyreactivity
25 | QVQLEESVGGLVQAGGSLRLSCAASVFIFYKKNMGLYRQAPGKERELVAAITDGDHTNYADSVKGRFTISRDNAKNTVYLQMNSLKPEDTAVYYCAADYAWNYAFGYWGQGTQVTVSS | low polyreactivity
26 | QVQLEESWGCLVQAGGSLRLSCAASGYTFVNYAMGWSRQAPGKEREFVAAISRSGGSTYYADSVKGRFTISRDNAKNTDYLQMHSLKPEDTAVYYCALRGYPPYKYYYWGQGTQVTVSS | high polyreactivity
27 | QVQLEETGGGLVQAGGSLLLSCEASGLTIHPYAMGWYRHAPGKERELVAAISSRGTSTYYADSVKWRFTISRDTAKNTVYLQMNSLKPEDTAVYYCAARHGPRAEAMYYWGQGPQVTVSS | high polyreactivity
28 | QVQLEETGGGLVQAGGSLRLSCSASGRTLYYYAMGWYRQAHGKDRELVAAISKRGGSTYYADSVQGRFTISRDNAKNTVYLQINSLKPVDTAVFYCAASSGLDSWGQGTQVTVSS | high polyreactivity
29 | QVQLEETGRGLVQAGGSLRISSAASGGIFAHYVMGWYRQAPGKARELVAAISASGGSTYYADSVKGRFTISRDNAKNTVYLQMNSLKPEDTAVYYCAAYYLAWFADRYKTVGSAMDYWGQVTQVTVSS | low polyreactivity
30 | QVQLEGSGGGLVQAGGSLRLSCAASGSIFSTNAMGWYRKAPGKERELVASISSGGGSTYYADSVKGRFTISRDTAKKTVYLQMNSLKPEDTAVYYCARRIGHGSRPYWLETWRYPYEYWGQGTQVTVSS | low polyreactivity
31 | QVQLEVSGGGLDQAGGSLRLSCAASGFTFVYYVMGCYRQAPGKQWELVAAINAGGGSTYYADSVKGRFTISRDNAKNTVYLQMNSLKPEDTAVYYCNARVRVRLGRNWSSYYYWGQGTQVTVSS | high polyreactivity
32 | QVQLGESGGALVQAGGSLRLSCAASGSIYWYKDMGWYTEATGKEMELVAAINSGGDTNYADSVKGRFTISRDNAKNTVYLQMNSLKPEDTAVFYCAATLLSRFYLSNRRSAYNYWGQGTLVTVSS | high polyreactivity
33 | QVQLGESGGCLGQAGGSLRLSCAASGYTFPYNVMGWYRQAPGKERELDAAITSSGGSTYYADSVKGRFTISRDNAKNTVYLQMNRLKPEDTAVYYCNAYPSSSLFDYWGQGTQVTVSS | low polyreactivity
34 | QVQLGESGGCLVQAGGSLRLICAASGFIFDRYVMGWYRQAPGKESELVAAINRSGGSTYYADSVKGRFTISRDNAKNTVYLQMNSLKRVDTAVYYCADVRPGSFTVEGYYCGQGTQVTVSS | high polyreactivity
35 | QVQLGESGGGLLQAGGSLRLICAASGSIFSPYDMGWYRHAPGKERVLVAAITGSGASTYYADSVKGRFSISRDNAKNTVSLEMNSLKPEETAVYYCAAVSKYYTTWTSGYWGQGTQVTLSS | low polyreactivity
36 | QVQLGESGGGLVQAGGILRLSCAASGSTFFYYAMGWYRQAPGKERELVATINYNGGSTSYADSVKGRFTFSRDNAKNTLYLQMISLIPEDTAVYYCAADLWVWYYKPYDYWGQGTQVTVSS | low polyreactivity
37 | QVQLGESGGGLVQAGGSLLLSSAASGFIFHNYPMGWYRQAPVKERELVAAISWSGSRTYYADSVKGRFTISRDNAKNSVYLQMNSLKPEDTAVYYCNKAPSWWDVRVPFDYWGQGTQVTVSS | low polyreactivity
38 | QVQLGESGGGLVQAGGSLRLICAASGFTFYDYAMGWYRQEPGKETEFVAAITRSGSSTYYADSVKGRFTISRDNAKNTVYLQMNSLKPEDTAVYYCAVGPFRRRGHYPTYYRYGYWGQGTQVTVSS | high polyreactivity
39 | QVQLGESGGGLVQAGGSLRLSCAASGFIFRYYGMGWYRQAPGKERELVAAISRGGGSTYYADSVKGRFTISRDNAKNTVYLQMNSLKPEDTAVYYCATRRDPDYDYWGQGTQVTVSS | high polyreactivity
40 | QVQLGESGGGLVQAGGSLRLSCAASGFTFVHNAMGWYRQAPGKERELVAAISSSGGRTYYADSVKGRFTISRDNAKNTVYLQMNSLKPDDTAVYYCATVNRYGPSYGYWGQGTHVTVSS | high polyreactivity
41 | QVQLGESGGGLVQAGGSLRLSCAASGFTFYTYAMGLYRQAPGKERELVATISSGGRTNYADSVKGRFTISRDNAKNTVYLQMNSLKPEDPAVFYCNASPPTLEGYWGQGTQVTVSS | low polyreactivity
42 | QVQLGESGGGLVQAGGSLRLSCAASGIIYKYAMGWYRQAPGQERELVATITWSDCSTYYADSVKGRFTISRDNAKNTVSLQMNSLKPEDTAVYYCAADDYYGYDYWGQGTQVTVSS | low polyreactivity
43 | QVQLGESGGGLVQAGGSLRLSCAASGITFGRKTMGWYRQAPGKERELVAAIDSGGNTYADSVKGRFTISRDNAKNTVYLQMNSLKPEDTAVYYCAVDGGEFSSYGYWGQGTQVTVSS | low polyreactivity
